Where a chain is given by its changes, count along the chain named. Names and notes keep the numbering of the source.
B1: hnRNPA1 wild-type (full-length) (natural protein)
chain: MSKSESPKEPEQLRKLFIGGLSFETTDESLRSHFEQWGTLTDCVVMRDPNTKRSRGFGFVTYATVEEVDAAMNARPHKVDGRVVEPKRAVSREDSQRPGAHLTVKKIFVGGIKEDTEEHHLRDYFEQYGKIEVIEIMTDRGSGKKRGFAFVTFDDHDSVDKIVIQKYHTVNGHNCEVRKALSKQEMASASSSQRGRSGSGNFGGGRGGGFGGNDNFGRGGNFSGRGGFGGSRGGGGYGGSGDGYNGFGNDGSNFGGGGSYNDFGNYNNQSSNFGPMKGGNFGGRSSGPYGGGGQYFAKPRNQGGYGGSSSSSSYGSGRRF
B2: hnRNPA1-D262N (full-length) (natural protein)
chain: B1 chain with D262N
B3: hnRNPA2 wild-type (full-length) (natural protein)
chain: MEREKEQFRKLFIGGLSFETTEESLRNYYEQWGKLTDCVVMRDPASKRSRGFGFVTFSSMAEVDAAMAARPHSIDGRVVEPKRAVAREESGKPGAHVTVKKLFVGGIKEDTEEHHLRDYFEEYGKIDTIEIITDRQSGKKRGFGFVTFDDHDPVDKIVLQKYHTINGHNAEVRKALSRQEMQEVQSSRSGRGGNFGFGDSRGGGGNFGPGPGSNFRGGSDGYGSGRGFGDGYNGYGGGPGGGNFGGSPGYGGGRGGYGGGGPGYGNQGGGYGGGYDNYGGGNYGSGNYNDFGNYNQQPSNYGPMKSGNFGGSRNMGGPYGGGNYGPGGSGGSGGYGGRSRY
B4: A2 D290V hexapeptide (NYNVFG) (peptide)
peptide: NYNVFG

How the values were obtained:
[1] = biological target: hnRNPA1-D262V (full-length) (human, UniProt P09651-2 1-320, D262V); experiment: cross-seeded fibrillization, sedimentation analysis
[2] = biological target: B2; experiment: as above
[3] = biological target: the molecule itself; experiment: seeded fibrillization, sedimentation analysis
[4] = biological target: hnRNPA2 D290V (full-length) (human, UniProt P22626-2 1-341, D290V); experiment: cross-seeded fibrillization, sedimentation analysis
[5] = biological target: the molecule itself; experiment: thioflavin-T fluorescence + electron microscopy

B1
binding result [1]: binds
binding result [2]: binds

B2
binding result [3]: binds

B3
binding result [4]: binds

B4
binding result [5]: binds

Source: article PMC3756911 (Nature, 2013)
